Experimental findings from PMC3692002 (Proteins, 2011) are described below.

The data set concerns the molecule itself. Put plainly: static light scattering.

B1: UgR76, uncharacterized 73 residue domain from Ruminococcus gnavus (domain or fragment)
chain: MSEHREGTLFYDTETGRYDIRFDLESFYGGLHCGECFDVKVKDVWVPVRIEMGDDWYLVGLNVSRLDGLRVRMLEHHHHHH
What is called stoichiometry N is the number of molecules, sites or subunits per partner or assembly. On to B1, for which the “stoichiometry N” value was found to be 2.
